Test system: CD14+ monocytes
Experiment: Sema 7a stimulation of CD14+ monocytes; CD206 expression via flow cytometry
Type: cell-based, human
Procedure: Antibodies against mouse F4/80, CD11b, and CD11c, and against human CD4, CD8, and CD14 were purchased from BD Pharmingen. CD206 antibody was purchased from Serotec. Semaphorin 7a antibody was obtained from R & D Systems. Appropriate isotype controls were obtained from BD Pharmingen. Flow cytometry and cell sorting were performed using a BD FACSCalibur. Data were analyzed using Flow Jo v 7.5 software (Tree Star, Inc, Ashland, Oreg.). For all analyses, isotype control staining was subtracted from true antibody staining to determine the percentage of positive cells. When necessary this percentage was then multiplied by the total cell count in the sample to derive absolute quantity of the cell population of interest.
Ficoll separation and processing of PBMCs for FACS was performed as we have previously described (Gan et al., 2011, Arthritis Rgeum. 63:2484-2494).
CD14+ monocytes were obtained via MACS-enrichment as have been previously described. These cells were stimulated with recombinant Sema 7a (Abnova, Taiwan) or human serum albumin (Sigma) as previously described (Gan et al., 2011, Arthritis Rgeum. 63:2484-2494). Lentivirally-mediated shRNA knockdown of Plexin C1 expression was performed using specific anti-Plexin shRNA or control “scramble” shRNA (Santa Cruz Biotech, Santa Cruz […].) as previously described (Gan et al., 2011, Arthritis Rgeum. 63:2484-2494).

B1: recombinant Sema 7a protein: recombinant Sema 7a (Abnova, Taiwan) used to stimulate CD14+ monocytes (protein, UniProt O75326 45-648, looked up)
Semaphorin-7A: QGHLRSGPRIFAVWKGHVGQDRVDFGQTEPHTVLFHEPGSSSVWVGGRGKVYLFDFPEGKNASVRTVNIGSTKGSCLDKRDCENYITLLERRSEGLLACGTNARHPSCWNLVNGTVVPLGEMRGYAPFSPDENSLVLFEGDEVYSTIRKQEYNGKIPRFRRIRGESELYTSDTVMQNPQFIKATIVHQDQAYDDKIYYFFREDNPDKNPEAPLNVSRVAQLCRGDQGGESSLSVSKWNTFLKAMLVCSDAATNKNFNRLQDVFLLPDPSGQWRDTRVYGVFSNPWNYSAVCVYSLGDIDKVFRTSSLKGYHSSLPNPRPGKCLPDQQPIPTETFQVADRHPEVAQRVEPMGPLKTPLFHSKYHYQKVAVHRMQASHGETFHVLYLTTDRGTIHKVVEPGEQEHSFAFNIMEIQPFRRAAAIQTMSLDAERRKLYVSSQWEVSQVPLDLCEVYGGGCHGCLMSRDPYCGWDQGRCISIYSSERSVLQSINPAEPHKECPNPKPDKAPLQKVSLAPNSRYYLSCPMESRHATYSWRHKENVEQSCEPGHQSPNCILFIENLTAQQYGHYFCEAQEGSYFREAQHWQLLPEDGIMAEHLLGHACALA
- response to Sema 7a stimulation (cell surface expression of CD206) (IPF monocytes, p=0.16, FIGS. 6A and 6B): failed to respond
- increase in cell surface expression of CD206 (normal human monocytes, p=0.04, FIGS. 6A and 6B): 94.3%

Reference: patent US20140271639A1, “Semaphorin 7a Induced Lung Fibrogenesis Occurs in a CD-4-Dependent, Macrophage Dependent Manner” (YALE UNIVERSITY, priority 2011, published 2014)
